According to the Human Domainome abundance scans (Beltran et al. 2025):
± gives the uncertainty stated by the source.

B1: POU domain, class 4, transcription factor 2, residues 256 to 327; numbered along this chain, Q12837 (parent)
chain: RDLEAFAERFKQRRIKLGVTQADVGSALANLKIPGVGSLSQSTICRFESLTLSHNNMIALKPILQAWLEEAE

Variants of: B1
Experiment: abundance fitness (aPCA) (normalised: wild type 0, dead -1); higher = more abundant; growth selection in yeast, the domain comes from the species named
Conditions: Homo sapiens

| Variant | abundance fitness |
| --- | --- |
| RDLEAFAERFKQRRIKLGVTQADVGSALANLKIPGVGSLSQSTICRFESLTLSTNNMIALKPILQAWLEEAE [H54T] | 0.06 ± 0.087 |
| RDLEAFAERFKQRRIKLGVTQADVGSALANLKIPGVGSLSQSTICRFESLTLSNNNMIALKPILQAWLEEAE [H54N] | -0.138 ± 0.1 |
| RDLEAFAERFKQRRIKLGVTQADVGSALANLKIPGVGSLSQSTICRFESLTLSINNMIALKPILQAWLEEAE [H54I] | -0.047 ± 0.18 |
| RDLEAFAERFKQRRIKLGVTQADVGSALANLKIPGVGSLSQSTICRFESLTLSRNNMIALKPILQAWLEEAE [H54R] | 0.081 ± 0.047 |
| RDLEAFAERFKQRRIKLGVTQADVGSALANLKIPGVGSLSQSTICRFESYTLSHNNMIALKPILQAWLEEAE [L50Y] | -0.478 ± 0.37 |
| RDLEAFAERFKQRRIKLGVTQADVGSALANLKIPGVGSLSQSTICRFESWTLSHNNMIALKPILQAWLEEAE [L50W] | -0.791 ± 0.19 |
| RDLEAFAERFKQRRIKLGVTQADVGSALANLKIPGVGSLSQSTICRFESLWLSHNNMIALKPILQAWLEEAE [T51W] | -0.78 ± 0.37 |
| RDLEAFAERFKQRRIKLGVTQADVGSALANLKIPGVGSLSQSTICRFESLYLSHNNMIALKPILQAWLEEAE [T51Y] | -0.567 ± 0.21 |
| RDLEAFAERFKQRRIKLGVTQADVGSALANLKIPGVGSLSQSTICRFESLFLSHNNMIALKPILQAWLEEAE [T51F] | -0.414 ± 0.11 |
| RDLEAFAERFKQRRIKLGVTQADVGSALANLKIPGVGSLSQSTICRFESLELSHNNMIALKPILQAWLEEAE [T51E] | -0.059 ± 0.17 |
| RDLEAFAERFKQRRIKLGVTQADVGSALANLKIPGVGSLSQSTICRFESLHLSHNNMIALKPILQAWLEEAE [T51H] | -0.232 ± 0.36 |
| RDLEAFAERFKQRRIKLGVTQADVGSALANLKIPGVGSLSQSTICRFESLPLSHNNMIALKPILQAWLEEAE [T51P] | -1.08 ± 0.32 |
| RDLEAFAERFKQRRIKLGVTQADVGSALANLKIPGVGSLSQSTICRFESLDLSHNNMIALKPILQAWLEEAE [T51D] | -0.295 ± 0.39 |
| RDLEAFAERFKQRRIKLGVTQADVGSALANLKIPGVGSLSQSTICRFESLRLSHNNMIALKPILQAWLEEAE [T51R] | -0.111 ± 0.067 |
| RDLEAFAERFKQRRIKLGVTQADVGSALANLKIPGVGSLSQSTICRFESLKLSHNNMIALKPILQAWLEEAE [T51K] | 0.264 ± 0.16 |
| RDLEAFAERFKQRRIKLGVTQADVGSALANLKIPGVGSLSQSTICRFESLCLSHNNMIALKPILQAWLEEAE [T51C] | -0.077 ± 0.11 |
| RDLEAFAERFKQRRIKLGVTQADVGSALANLKIPGVGSLSQSTICRFESLVLSHNNMIALKPILQAWLEEAE [T51V] | -0.367 ± 0.079 |
| RDLEAFAERFKQRRIKLGVTQADVGSALANLKIPGVGSLSQSTICRFESLALSHNNMIALKPILQAWLEEAE [T51A] | -0.035 ± 0.033 |
| RDLEAFAERFKQRRIKLGVTQADVGSALANLKIPGVGSLSQSTICRFESLGLSHNNMIALKPILQAWLEEAE [T51G] | -0.181 ± 0.058 |

| Variant | abundance fitness |
| --- | --- |
| RDLEAFAERFKQRRIKLGVTQADVGSALANLKIPGVGSLSQSTICRFESLSLSHNNMIALKPILQAWLEEAE [T51S] | 0.018 ± 0.028 |
| RDLEAFAERFKQRRIKLGVTQADVGSALANLKIPGVGSLSQSTICRFESLLLSHNNMIALKPILQAWLEEAE [T51L] | -0.256 ± 0.064 |
| RDLEAFAERFKQRRIKLGVTQADVGSALANLKIPGVGSLSQSTICRFESLQLSHNNMIALKPILQAWLEEAE [T51Q] | -0.041 ± 0.086 |
| RDLEAFAERFKQRRIKLGVTQADVGSALANLKIPGVGSLSQSTICRFESLMLSHNNMIALKPILQAWLEEAE [T51M] | 0.077 ± 0.096 |
| RDLEAFAERFKQRRIKLGVTQADVGSALANLKIPGVGSLSQSTICRFESLTSSHNNMIALKPILQAWLEEAE [L52S] | -0.849 ± 0.13 |
| RDLEAFAERFKQRRIKLGVTQADVGSALANLKIPGVGSLSQSTICRFESLTESHNNMIALKPILQAWLEEAE [L52E] | -0.732 ± 0.22 |
| RDLEAFAERFKQRRIKLGVTQADVGSALANLKIPGVGSLSQSTICRFESLTGSHNNMIALKPILQAWLEEAE [L52G] | -0.679 ± 0.12 |
| RDLEAFAERFKQRRIKLGVTQADVGSALANLKIPGVGSLSQSTICRFESLTMSHNNMIALKPILQAWLEEAE [L52M] | -0.324 ± 0.19 |
| RDLEAFAERFKQRRIKLGVTQADVGSALANLKIPGVGSLSQSTICRFESLTDSHNNMIALKPILQAWLEEAE [L52D] | -0.472 ± 0.18 |
| RDLEAFAERFKQRRIKLGVTQADVGSALANLKIPGVGSLSQSTICRFESLTRSHNNMIALKPILQAWLEEAE [L52R] | -0.883 ± 0.12 |
| RDLEAFAERFKQRRIKLGVTQADVGSALANLKIPGVGSLSQSTICRFESLTKSHNNMIALKPILQAWLEEAE [L52K] | -0.163 ± 0.17 |
| RDLEAFAERFKQRRIKLGVTQADVGSALANLKIPGVGSLSQSTICRFESLTASHNNMIALKPILQAWLEEAE [L52A] | -0.822 ± 0.14 |
| RDLEAFAERFKQRRIKLGVTQADVGSALANLKIPGVGSLSQSTICRFESLTWSHNNMIALKPILQAWLEEAE [L52W] | -0.952 ± 0.22 |
| RDLEAFAERFKQRRIKLGVTQADVGSALANLKIPGVGSLSQSTICRFESLTNSHNNMIALKPILQAWLEEAE [L52N] | -0.997 ± 0.18 |
| RDLEAFAERFKQRRIKLGVTQADVGSALANLKIPGVGSLSQSTICRFESLTHSHNNMIALKPILQAWLEEAE [L52H] | -0.729 ± 0.28 |
| RDLEAFAERFKQRRIKLGVTQADVGSALANLKIPGVGSLSQSTICRFESLTQSHNNMIALKPILQAWLEEAE [L52Q] | -1.08 ± 0.32 |
| RDLEAFAERFKQRRIKLGVTQADVGSALANLKIPGVGSLSQSTICRFESLTFSHNNMIALKPILQAWLEEAE [L52F] | -0.682 ± 0.21 |
| RDLEAFAERFKQRRIKLGVTQADVGSALANLKIPGVGSLSQSTICRFESLTPSHNNMIALKPILQAWLEEAE [L52P] | -0.887 ± 0.12 |
| RDLEAFAERFKQRRIKLGVTQADVGSALANLKIPGVGSLSQSTICRFESLTTSHNNMIALKPILQAWLEEAE [L52T] | -0.683 ± 0.15 |
